{
  "source": "patent US20230080534A1",
  "about": "“SEMG2 ANTIBODY AND USE THEREOF” (SHANGHAI BIOTROY BIOTECHNIQUE CO., LTD., priority 2020, published 2023)",
  "key": {"[1]": {"biological_target": "T1, binding between SEMG2 and CD27 (Homo sapiens, UniProt Q02383)", "T1 sequence (Q02383 24-582)": "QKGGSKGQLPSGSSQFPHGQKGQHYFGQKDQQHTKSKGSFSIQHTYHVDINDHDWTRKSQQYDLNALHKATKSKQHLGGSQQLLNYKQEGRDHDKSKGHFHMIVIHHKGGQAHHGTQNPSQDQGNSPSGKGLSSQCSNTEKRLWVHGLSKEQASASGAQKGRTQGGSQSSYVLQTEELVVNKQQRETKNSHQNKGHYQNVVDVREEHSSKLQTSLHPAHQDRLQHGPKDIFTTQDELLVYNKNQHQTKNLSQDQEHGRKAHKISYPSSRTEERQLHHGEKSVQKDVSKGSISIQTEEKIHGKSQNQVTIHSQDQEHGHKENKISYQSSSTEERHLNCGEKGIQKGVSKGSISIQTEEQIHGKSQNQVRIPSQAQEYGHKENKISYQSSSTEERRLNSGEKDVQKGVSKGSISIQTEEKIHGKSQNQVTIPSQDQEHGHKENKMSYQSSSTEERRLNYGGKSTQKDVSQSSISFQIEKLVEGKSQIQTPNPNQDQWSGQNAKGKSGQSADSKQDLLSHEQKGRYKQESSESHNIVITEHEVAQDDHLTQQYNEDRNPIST", "experiment": "Antibody blocking ELISA of SEMG2 binding to CD27-Fc", "conditions": "antibody 10 μg/mL", "text": "Because SEMG2 (497-509) sequence fragment is the key epitope of SEMG2 binding to CD27, and has a relatively short sequence, so SEMG2 (497-509) was used as an immunogen to prepare antibodies, which is theoretically easier to obtain functional antibody molecules with the function of blocking the binding between SEMG2 and CD27 than using full-length SEMG2 to prepare antibodies. For direct comparison, the differences in effective concentration of producing antibody by the two methods were verified using ELISA in the examples. Antibodies produced with SEMG2 (497-509) as immunogen and antibodies produced with full-length SEMG2 were added into the enzyme-linked immunosorbent assay (ELISA) reaction system at different concentrations (10^-2, 10^-1, 10^0, 10^1, 10^2, 10^3, 10^4 μg/mL), and the ELISA binding values were measured. The specific steps of enzyme-linked immunosorbent assay are as follows: (1) Dissolve SEMG2 protein antigen with 50 mM carbonate coating buffer (pH 9.6) to make the antigen concentration 10 μg/mL, and add into 96-well ELISA plate (purchased from Corning) at 100 μL/well, place at 4° C. overnight. (2) After discarding the coating solution on the next day, wash with PBST for three times, add 150 μL of 1% BSA to each well, and block for 2 hours at 37° C. […] (4) After washing for 5 times with PBST, add 100 of diluted HRP-labeled anti-human Fe secondary antibody, and incubate at 37° C. for 1 hour. (5) After washing with PBST for 5 times, 20 min after developing with chromogenic agent, the A450 absorption value was read using the microplate reader.\nThe SEMG2 (497-509) sequence was used to synthesize a polypeptide and coupled to a VLP carrier for immunization; HEK293 cells were used to express the full-length SEMG2 protein, and the purity was tested to reach 92%, and the binding activity of SEMG2 protein to CD27 was verified by ELISA. The protein and polypeptide antigens were used to immunize 10 mice respectively, and multiple immunizations were performed to enhance the effect: (1) The first immunization, 50 μg/mice of antigen, multiple subcutaneous injections together with Freund's complete adjuvant, with an interval of 3 weeks; (2) the second immunization; the same dosage and route as above, with incomplete Freund's adjuvant, and with an interval of 3 weeks; (3) the third immunization, the same dosage as above, without adjuvant, intraperitoneal injection with an interval of 3 weeks; (4) the booster immunization, the dose is 50 μg, intraperitoneal injection. 3 days after the last injection, blood was collected to measure its titer and the immune effect, and mice with higher titers were selected for hybridoma fusion screening. After subcloning, the binding of the monoclonal antibodies to the target antigens was detected by ELISA, and the function of different monoclonal antibodies in blocking the binding between SEMG2 and CD27 was measured by ELISA.\nFirst, SEMG2(497-509) epitope-specific antibodies (for example, MM02, MM05) were compared with other epitope-specific antibodies (for example, HPA042767) for their function in blocking binding between SEMG2 and CD27 at different concentration ranges. […] The blocking function of different antibodies (irrelative mouse IgG, MM02, MM05, HPA042767) on binding between SEMG2 and CD27 was analyzed by the ELISA experiment as described in Example 11.\nFurther, the effects of different antibodies on the binding between SEMG2 and CD27 were compared under the condition of the same antibody concentration. In the ELISA, the same concentration (10 μg/mL) of antibody was used, and the strength of the binding between SEMG2 and CD27 was measured. […]"}, "SEMG2": {"biological_target": "T2, SEMG2 (Homo sapiens, UniProt Q02383)", "T2 sequence (Q02383 24-582)": "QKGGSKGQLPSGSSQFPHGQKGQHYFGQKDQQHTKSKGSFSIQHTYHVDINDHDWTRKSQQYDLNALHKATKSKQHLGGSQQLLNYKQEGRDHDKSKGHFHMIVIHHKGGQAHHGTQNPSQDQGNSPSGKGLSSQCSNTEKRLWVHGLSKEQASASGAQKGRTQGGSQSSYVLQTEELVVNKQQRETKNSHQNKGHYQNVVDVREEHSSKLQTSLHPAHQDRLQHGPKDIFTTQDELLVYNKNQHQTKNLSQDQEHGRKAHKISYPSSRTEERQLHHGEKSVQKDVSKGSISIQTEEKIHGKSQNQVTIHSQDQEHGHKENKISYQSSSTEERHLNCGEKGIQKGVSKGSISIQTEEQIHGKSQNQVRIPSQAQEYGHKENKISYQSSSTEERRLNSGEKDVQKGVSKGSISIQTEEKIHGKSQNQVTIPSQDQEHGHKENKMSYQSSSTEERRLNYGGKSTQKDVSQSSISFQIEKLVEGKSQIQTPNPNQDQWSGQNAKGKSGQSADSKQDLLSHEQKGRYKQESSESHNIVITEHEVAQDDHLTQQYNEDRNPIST", "experiment": "Competition ELISA of fully human antibody with murine antibodies for SEMG2", "assay_type": "binding", "conditions": "concentration gradient of fully human antibody mixed with murine antibody", "description": "The binding abilities of fully human antibodies and murine antibodies to SEMG2 were tested, that is, murine antibodies MM02 and MM05 and concentration gradient diluted filly human antibodies H88-93 were mixed and added as primary antibodies in a 96-well microplate coated with SEMG2. Murine monoclonal antibody bound to SEMG2 was measured using anti-mouse HRP secondary antibody. The blocking percentage is calculated according to the following formula:\nBlocking percentage=[1−(A450 of experimental antibody group-Blank control)/(A450 of positive control antibody−A450 of empty control)]×100%"}, "[2]": {"tested_on": "LOVO human colorectal cancer cells", "experiment": "Tumor cell killing by activated PBMC, caspase-3/7 apoptosis", "assay_type": "cell-based", "conditions": "SEMG2-positive, co-culture with activated PBMC 10:1", "description": "(§1) To test the above hypothesis, the effects of different epitope-specific antibodies on tumor cell killing by activated PBMC were compared. Specifically, A375 human melanoma and LOVO human colorectal cancer cells highly expressing SEMG2 were seeded in 96-well plate. Human peripheral blood mononuclear cells (PBMC; #70025, Stem Cell) were activated with 100 ng/mL of CD3 antibody, 100 ng/mL, of CD28 antibody, and 1.0 ng/mL of IL2 (#317303; #302913; #589102, BioLegend), respectively, and co-cultured with the above tumor cells at a ratio of 10:1 in presence of fluorescent caspase-3/7 substrate (#4440, Essen Bioscience). After 1.0 hours, cells were observed under fluorescence microscope.\n(§2) To verify the above hypothesis, tumor cells with high SEMG2 expression (A375, LOVO) and SEMG2-negative tumor cells (DLD1, NCM460 and NCI-H1975) were selected. Different antibodies (irrelevant mouse IgG antibodies, MM02 or MM05 antibodies) were added during the PBMC killing experiments for the tumor cells.\n(§3) To verify the effect of the human antibodies on the function of activated PBMC on tumor cell killing, A375 and LOVO cells were co-cultured with activated PBMC, and H88-93, H88-96, or H88-67 antibody was added at the same time, and the apoptosis ratio of tumor cells were detected."}, "[3]": {"tested_on": "A375 human melanoma cells", "experiment": "Tumor cell killing by activated PBMC, caspase-3/7 apoptosis", "assay_type": "cell-based", "conditions": "A375, SEMG2-positive, co-culture with activated PBMC 10:1", "description": "as §1, §2, §3"}, "SEMG2(497-509) fragment": {"biological_target": "T3, SEMG2(497-509) fragment (Homo sapiens, UniProt Q02383)", "T3 construct": "SEMG2(497-509) fragment and SEMG2(563-574) fragment were immobilized on the ELISA plate; made in house; host or cells: chemical synthesis", "experiment": "ELISA binding of antibodies to SEMG2(497-509) epitope", "description": "Specifically, SEMG2 full-length protein (1-582), SEMG2(354-403) fragment, SEMG2(442-453) fragment, SEMG2(497-509) fragment and SEMG2(563-574) fragment were immobilized on the ELISA plate, and the same concentration of antibodies (MM02, MM05, MM07, MM08, MM13, MM14, HPA042767 and HPA042835) were added. Anti-mouse or anti-rabbit secondary antibodies were then used to detect the corresponding bound antibodies. MM02, MM05, MM07, MM08, MM13, and MM14 all bound to SEMG2(497509) epitope, HPA042767 bound to SEMG2 (354-403) epitope, and HPA042835 bound to […], while none of the antibodies bound to SEMG2 (442-453) control fragment.\nSpecifically, the preparation of polypeptide antigens and the screening of human natural antibody library were firstly performed. The SEMG2(497-509) polypeptide was synthesized and coupled to BSA and KLH, respectively, and screened in a fully human phage display antibody library. ELISA was used to select clones that bind to antigenic epitopes for preliminary screening. Different unique sequences were obtained after sequencing single colonies, sorted according to affinity sorting, and full-length antibodies were constructed from antigen-binding fragments (Fab) with relatively high affinity. The binding ability and blocking function tests were performed after purification, that is, the effect of the antibody on binding between SEMG2 and CD27 was determined by the ELISA experiment."}},
  "data": [
    {"molecule": "H88-93: fully human antibody from phage library against SEMG2(497-509), VH SEQ ID NO:55, VL SEQ ID NO:58 (antibody, V domains shown, UNSURE (1)..(123) VH; UNSURE (1)..(108) VL) VH: QITLKESGPTLVKPTQTLTLTCNFSGFSLTTSGVGVAWIRQPPGKALEWLALIYWDDDQRYSPSLKSRLSVTKHTSKDQVVLTMTNVGPVDTATYYCAHLSYGPGWGYYMDVWGNGTMVTVSS VL: EIVLTQSPGTLSLSPGERASLSCRASQSVRNNYLAWYQQKPGQAPRLLIFGASNRATGIPDTFSGSGSGTDFTLTISRLEPEDFAVYYCQQYGHSPITFGQGTRLEIK", "values": [
      {"measurement": "effect on the binding between SEMG2 and CD27", "setting": "[1]", "value": "inhibited the binding"},
      {"measurement": "competition with MM02 and MM05 for binding to SEMG2", "setting": "SEMG2", "value": "competes"},
      {"measurement": "apoptosis tumor cell ratio / killing by activated PBMC", "setting": "[2]", "value": "significantly promote the killing"},
      {"measurement": "apoptosis tumor cell ratio / killing by activated PBMC", "setting": "[3]", "value": "significantly promote the killing"},
      {"measurement": "binding to SEMG2(497-509) epitope", "setting": "SEMG2(497-509) fragment", "value": "bind"}
    ]}
  ]
}
